Here are results for two molecules from US20200360435A1 (published 2020).

Positions count from the first letter of the chain named.

This test concerns the target HTLV-1 Tax peptide on HLA-A*24:02 (human). The experiment in a line: multimer staining.

B1: TCR7-2 (TCR, V domains shown)
Valpha: KQEVTQIPAALSVPEGENLVLNCSFTDSAIYNLQWFRQDPGKGLTSLLLIQSSQREQTSGRLNASLDKSSGRSTLYIAASQPGDSATYLCAVSRGNARLMFGDGTQLVVKP
Vbeta: DTGVSQDPRHKITKRGQNVTFRCDPISEHNRLYWYRQTLGQGPEFLTYFQNEAQLEKSRLLSDRFSAERPKGSFSTLEIQRTEQGDSAMYLCASAEDRGEKLFFGSGTQLSVL
On to B1, for which the binding result is “recognises”.

B2: TCR7-3 (TCR, V domains shown)
Valpha: B1 Valpha with A97N, M100A, D103K, T105N, L107V, K110I
Vbeta: B1 Vbeta with A95S, E96P, G99A, E100D, K101T, L102Q, F103Y, S106P, Q109R, S111T
Consider B2, for which the binding result is given as “recognises”.
